# Results from US20260193293A1, “PEPTIDES CAPABLE OF INHIBITING PROTEIN-PROTEIN INTERACTIONS AT GABAB1A SUBUNIT AND USES THEREOF” (UNIVERSITY OF COPENHAGEN, priority 2022, published 2026).
# Non-standard residues stand in square brackets, D forms with d. NMeW = CN[C@@H](Cc1c[nH]c2ccccc12)C(=O)O; NMeR = CN[C@@H](CCCNC(=N)N)C(=O)O; NMeI = CC[C@H](C)[C@H](NC)C(=O)O; NMeT = CN[C@H](C(=O)O)[C@@H](C)O; NMeE = CN[C@@H](CCC(=O)O)C(=O)O; NMeD = CN[C@@H](CC(=O)O)C(=O)O; NMeV = CN[C@H](C(=O)O)C(C)C; NMeS = CN[C@@H](CO)C(=O)O; NMeA = CN[C@@H](C)C(=O)O; Sar = CNCC(=O)O
# B1: …(N-Me-D) (peptide)
# peptide: Ac-PWAIVWGPTVSRE[NMeD]-NH2
# SMILES: CC[C@H](C)[C@H](NC(=O)[C@H](C)NC(=O)[C@H](Cc1c[nH]c2ccccc12)NC(=O)[C@@H]1CCCN1C(C)=O)C(=O)N[C@H](C(=O)N[C@@H](Cc1c[nH]c2ccccc12)C(=O)NCC(=O)N1CCC[C@H]1C(=O)N[C@H](C(=O)N[C@H](C(=O)N[C@@H](CO)C(=O)N[C@@H](CCCNC(=N)N)C(=O)N[C@@H](CCC(=O)O)C(=O)N(C)[C@@H](CC(=O)O)C(N)=O)C(C)C)[C@@H](C)O)C(C)C
# B2: PWAI(N-Me-V)… (peptide)
# peptide: Ac-PWAI[NMeV]WGPTVSRED-NH2
# SMILES: CC[C@H](C)[C@H](NC(=O)[C@H](C)NC(=O)[C@H](Cc1c[nH]c2ccccc12)NC(=O)[C@@H]1CCCN1C(C)=O)C(=O)N(C)[C@H](C(=O)N[C@@H](Cc1c[nH]c2ccccc12)C(=O)NCC(=O)N1CCC[C@H]1C(=O)N[C@H](C(=O)N[C@H](C(=O)N[C@@H](CO)C(=O)N[C@@H](CCCNC(=N)N)C(=O)N[C@@H](CCC(=O)O)C(=O)N[C@@H](CC(=O)O)C(N)=O)C(C)C)[C@@H](C)O)C(C)C
# B3: …(N-Me-V)SRED (peptide)
# peptide: Ac-PWAIVWGPT[NMeV]SRED-NH2
# SMILES: CC[C@H](C)[C@H](NC(=O)[C@H](C)NC(=O)[C@H](Cc1c[nH]c2ccccc12)NC(=O)[C@@H]1CCCN1C(C)=O)C(=O)N[C@H](C(=O)N[C@@H](Cc1c[nH]c2ccccc12)C(=O)NCC(=O)N1CCC[C@H]1C(=O)N[C@H](C(=O)N(C)[C@H](C(=O)N[C@@H](CO)C(=O)N[C@@H](CCCNC(=N)N)C(=O)N[C@@H](CCC(=O)O)C(=O)N[C@@H](CC(=O)O)C(N)=O)C(C)C)[C@@H](C)O)C(C)C
# B4: PW(N-Me-A)… (peptide)
# peptide: Ac-PW[NMeA]IVWGPTVSRED-NH2
# SMILES: CC[C@H](C)[C@H](NC(=O)[C@H](C)N(C)C(=O)[C@H](Cc1c[nH]c2ccccc12)NC(=O)[C@@H]1CCCN1C(C)=O)C(=O)N[C@H](C(=O)N[C@@H](Cc1c[nH]c2ccccc12)C(=O)NCC(=O)N1CCC[C@H]1C(=O)N[C@H](C(=O)N[C@H](C(=O)N[C@@H](CO)C(=O)N[C@@H](CCCNC(=N)N)C(=O)N[C@@H](CCC(=O)O)C(=O)N[C@@H](CC(=O)O)C(N)=O)C(C)C)[C@@H](C)O)C(C)C
# B5: PWAIVW(N-Me-G)PTVSRED (peptide)
# peptide: Ac-PWAIVW[Sar]PTVSRED-NH2
# SMILES: CC[C@H](C)[C@H](NC(=O)[C@H](C)NC(=O)[C@H](Cc1c[nH]c2ccccc12)NC(=O)[C@@H]1CCCN1C(C)=O)C(=O)N[C@H](C(=O)N[C@@H](Cc1c[nH]c2ccccc12)C(=O)N(C)CC(=O)N1CCC[C@H]1C(=O)N[C@H](C(=O)N[C@H](C(=O)N[C@@H](CO)C(=O)N[C@@H](CCCNC(=N)N)C(=O)N[C@@H](CCC(=O)O)C(=O)N[C@@H](CC(=O)O)C(N)=O)C(C)C)[C@@H](C)O)C(C)C
# B6: PWAIV(N-Me-W)GPTVSRED (peptide)
# peptide: Ac-PWAIV[NMeW]GPTVSRED-NH2
# SMILES: CC[C@H](C)[C@H](NC(=O)[C@H](C)NC(=O)[C@H](Cc1c[nH]c2ccccc12)NC(=O)[C@@H]1CCCN1C(C)=O)C(=O)N[C@H](C(=O)N(C)[C@@H](Cc1c[nH]c2ccccc12)C(=O)NCC(=O)N1CCC[C@H]1C(=O)N[C@H](C(=O)N[C@H](C(=O)N[C@@H](CO)C(=O)N[C@@H](CCCNC(=N)N)C(=O)N[C@@H](CCC(=O)O)C(=O)N[C@@H](CC(=O)O)C(N)=O)C(C)C)[C@@H](C)O)C(C)C
# B7: PWAIVWGP(N-Me-T)VSRED (peptide)
# peptide: Ac-PWAIVWGP[NMeT]VSRED-NH2
# SMILES: CC[C@H](C)[C@H](NC(=O)[C@H](C)NC(=O)[C@H](Cc1c[nH]c2ccccc12)NC(=O)[C@@H]1CCCN1C(C)=O)C(=O)N[C@H](C(=O)N[C@@H](Cc1c[nH]c2ccccc12)C(=O)NCC(=O)N1CCC[C@H]1C(=O)N(C)[C@H](C(=O)N[C@H](C(=O)N[C@@H](CO)C(=O)N[C@@H](CCCNC(=N)N)C(=O)N[C@@H](CCC(=O)O)C(=O)N[C@@H](CC(=O)O)C(N)=O)C(C)C)[C@@H](C)O)C(C)C
# B8: …(N-Me-R)ED (peptide)
# peptide: Ac-PWAIVWGPTVS[NMeR]ED-NH2
# SMILES: CC[C@H](C)[C@H](NC(=O)[C@H](C)NC(=O)[C@H](Cc1c[nH]c2ccccc12)NC(=O)[C@@H]1CCCN1C(C)=O)C(=O)N[C@H](C(=O)N[C@@H](Cc1c[nH]c2ccccc12)C(=O)NCC(=O)N1CCC[C@H]1C(=O)N[C@H](C(=O)N[C@H](C(=O)N[C@@H](CO)C(=O)N(C)[C@@H](CCCNC(=N)N)C(=O)N[C@@H](CCC(=O)O)C(=O)N[C@@H](CC(=O)O)C(N)=O)C(C)C)[C@@H](C)O)C(C)C
# B9: …(N-Me-E)D (peptide)
# peptide: Ac-PWAIVWGPTVSR[NMeE]D-NH2
# SMILES: CC[C@H](C)[C@H](NC(=O)[C@H](C)NC(=O)[C@H](Cc1c[nH]c2ccccc12)NC(=O)[C@@H]1CCCN1C(C)=O)C(=O)N[C@H](C(=O)N[C@@H](Cc1c[nH]c2ccccc12)C(=O)NCC(=O)N1CCC[C@H]1C(=O)N[C@H](C(=O)N[C@H](C(=O)N[C@@H](CO)C(=O)N[C@@H](CCCNC(=N)N)C(=O)N(C)[C@@H](CCC(=O)O)C(=O)N[C@@H](CC(=O)O)C(N)=O)C(C)C)[C@@H](C)O)C(C)C
# B10: …(N-Me-S)RED (peptide)
# peptide: Ac-PWAIVWGPTV[NMeS]RED-NH2
# SMILES: CC[C@H](C)[C@H](NC(=O)[C@H](C)NC(=O)[C@H](Cc1c[nH]c2ccccc12)NC(=O)[C@@H]1CCCN1C(C)=O)C(=O)N[C@H](C(=O)N[C@@H](Cc1c[nH]c2ccccc12)C(=O)NCC(=O)N1CCC[C@H]1C(=O)N[C@H](C(=O)N[C@H](C(=O)N(C)[C@@H](CO)C(=O)N[C@@H](CCCNC(=N)N)C(=O)N[C@@H](CCC(=O)O)C(=O)N[C@@H](CC(=O)O)C(N)=O)C(C)C)[C@@H](C)O)C(C)C
# B11: P(N-Me-W)… (peptide)
# peptide: Ac-P[NMeW]AIVWGPTVSRED-NH2
# SMILES: CC[C@H](C)[C@H](NC(=O)[C@H](C)NC(=O)[C@H](Cc1c[nH]c2ccccc12)N(C)C(=O)[C@@H]1CCCN1C(C)=O)C(=O)N[C@H](C(=O)N[C@@H](Cc1c[nH]c2ccccc12)C(=O)NCC(=O)N1CCC[C@H]1C(=O)N[C@H](C(=O)N[C@H](C(=O)N[C@@H](CO)C(=O)N[C@@H](CCCNC(=N)N)C(=O)N[C@@H](CCC(=O)O)C(=O)N[C@@H](CC(=O)O)C(N)=O)C(C)C)[C@@H](C)O)C(C)C
# B12: PWA(N-Me-I)… (peptide)
# peptide: Ac-PWA[NMeI]VWGPTVSRED-NH2
# SMILES: CC[C@H](C)[C@@H](C(=O)N[C@H](C(=O)N[C@@H](Cc1c[nH]c2ccccc12)C(=O)NCC(=O)N1CCC[C@H]1C(=O)N[C@H](C(=O)N[C@H](C(=O)N[C@@H](CO)C(=O)N[C@@H](CCCNC(=N)N)C(=O)N[C@@H](CCC(=O)O)C(=O)N[C@@H](CC(=O)O)C(N)=O)C(C)C)[C@@H](C)O)C(C)C)N(C)C(=O)[C@H](C)NC(=O)[C@H](Cc1c[nH]c2ccccc12)NC(=O)[C@@H]1CCCN1C(C)=O
# Target: Sushi domains (SD1/2) protein of the GABAB1a (GB1a) subunit, recombinant
# Sequence (Q9Z0U4 29-158): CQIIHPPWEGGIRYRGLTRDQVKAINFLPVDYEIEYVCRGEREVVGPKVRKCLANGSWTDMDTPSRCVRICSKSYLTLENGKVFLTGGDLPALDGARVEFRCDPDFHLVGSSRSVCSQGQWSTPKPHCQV
# Assay: FP competition
row,Ki [nM],Binder
1,434,B1
2,7000,B2
3,951,Ac-EDDSDVIWGGADTD-NH2
4,552,Ac-PWAIVWGPTV[dS]RED-NH2 […sRED]
5,65,Ac-EDDDWIDWYDSDDDRRRRRRRR-NH2 [16-R8 (…)]
6,1780,B3
7,204,Ac-EDDSDVWWGGSDTD-NH2
8,191,Ac-EDDSYVWWGGADTD-NH2
9,7230,B4
10,243,Ac-EDDSIVWWGGADTD-NH2
11,58300,B5
12,429,Ac-EDDSDVWWDGADTD-NH2
13,636,B6
14,459,Ac-EDDSDVWWGGADWD-NH2
15,346,Ac-EDDSDVWWGGHDTD-NH2
16,142,Ac-EDDSFVWWGGADTD-NH2
17,1260,B7

row,Ki [nM],Binder
1,605,Ac-PWAIVWGPTVS[dR]ED-NH2 […rED]
2,270,Ac-EDDSDVWWHGADTD-NH2
3,502,B8
4,257,Ac-EDDWDVWWGGADTD-NH2
5,4800,Ac-EDDSDVDWGGADTD-NH2
6,523,B9
7,1040,B10
8,739,Ac-EDDSDVWWGGADHD-NH2
9,337,Ac-EDDSDVWWGGADED-NH2
10,3600,Ac-EDDSDVYWGGADTD-NH2
11,255,Ac-EDDSDVWWGGYDTD-NH2
12,332,Ac-EDDSDVWWGPADTD-NH2
13,833,B11
14,370,B12
15,1520,Ac-KDDSDVWWGGADTD-NH2
16,401,Ac-EDDSDIWWGGADTD-NH2
